Holding throughout (assay type): cell-based, human
Assay [1] has as its system CD138+ PMMCs. Put plainly: Drug response of CD138+ PMMCs co-cultured with osteoblast (OSB) tissue in 96-well plate-based perfusion culture, viability by flow cytometry. The following applies: cultured with OSBs. How it is done: Using the 96-well plate-based culture platform described in Example 2, osteoblasts (OSBs) (hFOB 1.19 cell line) were cultured for 4 days at 20% O2 tension to form an ossified tissue structure. Patient bone marrow mononuclear cells (BMMCs) containing PMMCs, were seeded on the ossified tissue structure and cultured for up to 5 weeks. […] When O2 tension was decreased to 1%, the proliferation rate of PMMCs decreased (FIG. 2C) while their viability was not compromised (data not shown). […] PMMCs also acquired cell adhesion mediated drug resistance (CAM-DR) due to the adhesive interactions with OSBs.
The response of PMMCs to two commonly used drugs to treat MM patients: (1) carfilzomib, a proteasome inhibitor; and (2) melphalan, which is often used to treat newly diagnosed MM patients along with stem-cell transplantation, was evaluated. OSB tissue was cultured for 4 days either at 1 or 20% O2 prior to seeding of PMMCs. After seeding, PMMC-OSB cultures were dosed with either carfilizomib or melphalan. After 24 h, flow cytometry was used to analyze the viability of CD138+PMMCs. […] Dual Inhibition Of Mcl-1 By The Combination Of Carfilzomib and TG02 In Multiple Myeloma, (2013)). […] British journal of haematology 152, 579-592, doi:10.1111/j.1365-2141.2010.08533.x. (2011); Xiang, Y. et al. Monitoring a Nuclear Factor-κB Signature of Drug Resistance in Multiple Myeloma. […]

Assay [2] concerns CD138+ PMMCs. In words: Drug response of CD138+ PMMCs cultured in fibrin. The following applies: in contrast to culture with OSBs (FIG. 3B). How it is done: The response of PMMCs to two commonly used drugs to treat MM patients: (1) carfilzomib, a proteasome inhibitor; and (2) melphalan, which is often used to treat newly diagnosed MM patients along with stem-cell transplantation, was evaluated. OSB tissue was cultured for 4 days either at 1 or 20% O2 prior to seeding of PMMCs. After seeding, PMMC-OSB cultures were dosed with either carfilizomib or melphalan. After 24 h, flow cytometry was used to analyze the viability of CD138+PMMCs. […] Dual Inhibition Of Mcl-1 By The Combination Of Carfilzomib and TG02 In Multiple Myeloma, (2013)). […] British journal of haematology 152, 579-592, doi:10.1111/j.1365-2141.2010.08533.x. (2011); Xiang, Y. et al. Monitoring a Nuclear Factor-κB Signature of Drug Resistance in Multiple Myeloma. Molecular & Cellular Proteomics 10, doi:10.1074/mcp.M110.005520 (2011)).
In this study, fibrin was used to reconstruct extracellular matrix (ECM) niche tissue containing patient bone marrow mononuclear cells (BMMCs). […]

In another assay the test system is 3D-osteocytes (OSTs). In words: Continuous PTH treatment of 3D-reconstructed osteocytes, relative gene expression. The following applies: 50 nM PTH for 2 days, compared to no treatment and 2D-OSTs controls (FIG. 4F). The text has this:
Cells and biphasic calcium phosphate (BCP) or polystyrene (PS) microbeads in the range of 20-25 μm (i.e, 20 μm, 21 μm, 22 μm, 23 μm, 24 μm and 25 μm) in diameter were assembled into the culture chamber, via forced liquid withdrawal through the PC membrane, to form a close-packed structure (FIG. 1). […] The cells entrapped within the interstitial spaces between the microbeads formed a 3D cellular network by extending and connecting their processes through openings between the microbeads over 2 weeks. […] The observed O2 tension effects are similar to those reported on the osteocytic differentiation of OSBs (Hirao, M. et al. Oxygen tension is an important mediator of the transformation of osteoblasts to osteocytes. Journal of bone and mineral metabolism 25, 266-276, doi:10.1007/s00774-007-0765-9 (2007); Chen, D. et al. HIF-1alpha inhibits Wnt signaling pathway by activating Sost expression in osteoblasts. PloS one 8, e65940, doi:10.1371/journal.pone.0065940 (2013); Clinkenbeard, E. L. et al. Neonatal iron deficiency causes abnormal phosphate metabolism by elevating FGF23 in normal and ADHR mice. Journal of bone and mineral research: the official journal of the American Society for Bone and Mineral Research 29, 361-369, doi:10.1002/jbmr.2049 (2014)).
In order to characterize the regulatory functions of 3D-osteocytes (OSTs) on osteoclastogenesis and osteoblastic development, the effects of continuous parathyroid hormone (PTH) treatment was evaluated.

The source of these data is patent US20190055510A1, “WELL PLATE-BASED PERFUSION CULTURE MODEL OF ENDOSTEAL-EXTRACELLULAR MATRIX (ECM)-AND ENDOTHELIAL-MYELOMA INTERACTIONS AND METHODS FOR TESTING PERSONALIZED THERAPEUTICS FOR MULTIPLE MYELOMA” (Hackensack University Medical Center, priority 2016, published 2019).

For the molecule `CC(C)C[C@H](NC(=O)[C@H](CCc1ccccc1)NC(=O)CN1CCOCC1)C(=O)N[C@@H](Cc1ccccc1)C(=O)N[C@@H](CC(C)C)C(=O)[C@@]1(C)CO1` [carfilzomib], the “response (viability) of CD138+ PMMCs to carfilzomib” value in the assay with CD138+ PMMCs [1] (100 nM carfilzomib, 20% O2, 24 h, flow cytometry (FIG. 3A)) is given as “significant resistance”.

Take `N[C@@H](Cc1ccc(N(CCCl)CCCl)cc1)C(=O)O` [melphalan]: in the assay with CD138+ PMMCs [1] (100 μM melphalan, both 1 and 20% O2, 24 h, flow cytometry (FIG. 3B)), the “response (viability) of CD138+ PMMCs to melphalan” value is “highly resistant”. Further, in the assay with CD138+ PMMCs [2], the “sensitivity of CD138+ PMMCs to melphalan” value was “significantly more sensitive”.

B1: parathyroid hormone (protein, UniProt P01270 32-115, looked up)
Parathyroid hormone: SVSEIQLMHNLGKHLNSMERVEWLRKKLQDVHNFVALGAPLAPRDAGSQRPRKKEDNVLVESHEKSLGEADKADVNVLTKAKSQ
modifications: Parathyroid hormone
notes: parathyroid hormone, known to induce OSTs to increase RANKL and decrease OPG and SOST gene expression
As for B1, in the assay on 3D-osteocytes (OSTs), the FGF23 gene expression result is given as “decreased”, the OPG gene expression entry was “decreased”, the RANKL gene expression result is “increased” and the SOST gene expression entry is “decreased”.
